Measured values as given in PMC7110113, “Termination of non‐coding transcription in yeast relies on both an RNA Pol II CTD interaction domain and a CTD‐mimicking region in Sen1” (The EMBO Journal, 2020).
Substitutions are numbered along the chain they refer to. Ends that are not written are not given here. FAM = 5,6-carboxyfluorescein

Experiments:
Experiment in all cases: fluorescence polarisation; fluorescence anisotropy, equilibrium binding of Nrd1 CID variants to FAM-labelled NIM peptides; 10°C, 50 mM Na2HPO4, 100 mM NaCl, pH 8; 1:1 model with non-specific binding (DynaFit)
Conditions in all cases: both partners purified
Nrd1 CID R133G = biological target: T1, Nrd1 CID R133G (S. cerevisiae, UniProt P53617 1-153, R133G)
T1 construct: the construct for anisotropy is made as described previously (Kubicek et al, 2012); also called CID(R133G)-His6; source: recombinant, produced and purified as described previously (Kubicek et al, 2012); plasmid made with QuikChange, T7 promoter
T1 sequence (looked up): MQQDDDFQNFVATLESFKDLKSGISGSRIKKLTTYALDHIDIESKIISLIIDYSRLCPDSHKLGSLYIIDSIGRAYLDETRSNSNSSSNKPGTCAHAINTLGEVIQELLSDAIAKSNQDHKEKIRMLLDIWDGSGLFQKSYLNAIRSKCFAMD

Nrd1 CID I130A = biological target: T2, Nrd1 CID I130A (S. cerevisiae, UniProt P53617 1-153, I130A)
T2 construct: the construct for anisotropy is made as described previously (Kubicek et al, 2012); also called CID(I130A)-His6; source: recombinant, produced and purified as described previously (Kubicek et al, 2012); plasmid with T7 promoter
T2 sequence (looked up): T1 sequence (looked up) with I130A, G133R

Nrd1 CID R28D = biological target: T3, Nrd1 CID R28D (S. cerevisiae, UniProt P53617 1-153, R28D)
T3 construct: the construct for anisotropy is made as described previously (Kubicek et al, 2012); also called CID(R28D)-His6; source: recombinant, produced and purified as described previously (Kubicek et al, 2012); plasmid with T7 promoter
T3 sequence (looked up): T1 sequence (looked up) with R28D, G133R

Nrd1 CID K21D = biological target: T4, Nrd1 CID K21D (S. cerevisiae, UniProt P53617 1-153, K21D)
T4 construct: the construct for anisotropy is made as described previously (Kubicek et al, 2012); also called CID(K21D)-His6; source: recombinant, produced and purified as described previously (Kubicek et al, 2012); plasmid with T7 promoter
T4 sequence (looked up): T1 sequence (looked up) with K21D, G133R

Nrd1 CID R133A = biological target: T5, Nrd1 CID R133A (S. cerevisiae, UniProt P53617 1-153, R133A)
T5 construct: the construct for anisotropy is made as described previously (Kubicek et al, 2012); also called CID(R133A)-His6; source: recombinant, produced and purified as described previously (Kubicek et al, 2012); plasmid with T7 promoter
T5 sequence (looked up): T1 sequence (looked up) with G133A

Nrd1 CID L20D = biological target: T6, Nrd1 CID L20D (S. cerevisiae, UniProt P53617 1-153, L20D)
T6 construct: the construct for anisotropy is made as described previously (Kubicek et al, 2012); also called CID(L20D)-His6; source: recombinant, produced and purified as described previously (Kubicek et al, 2012); plasmid with T7 promoter
T6 sequence (looked up): T1 sequence (looked up) with L20D, G133R

Nrd1 CID R133D = biological target: T7, Nrd1 CID R133D (S. cerevisiae, UniProt P53617 1-153, R133D)
T7 construct: the construct for anisotropy is made as described previously (Kubicek et al, 2012); also called CID(R133D)-His6; source: recombinant, produced and purified as described previously (Kubicek et al, 2012); plasmid made with QuikChange, T7 promoter
T7 sequence (looked up): T1 sequence (looked up) with G133D

- Kd (Nrd1 CID R133G): 1.6 ± 0.04 µM
- Kd (Nrd1 CID I130A): 7.6 ± 0.3 µM
- Kd (Nrd1 CID R28D): 78.2 ± 11.5 µM
- Kd (Nrd1 CID K21D): 8 ± 0.8 µM
- Kd (Nrd1 CID R133A): 1.8 ± 0.08 µM
- Kd (Nrd1 CID L20D): 16.9 ± 1.5 µM
- Kd (Nrd1 CID R133D): 2 ± 0.1 µM
B1: Sen1 NIM peptide (Sen1 aa 2,052-2,063) (peptide, UniProt Q00416 2052-2063, looked up)
peptide: {FAM}-DDDEDDYTPSIS
notes: Sen1, S. cerevisiae, fragment harbouring aa 2,052-2,063; source: synthetic peptide
